This note sets out measurements from US6872537.

This series addresses microtubules prepared from bovine brain tubulin.

B1: co-expressed baculovirus p60/p80 katanin heterodimer (both subunits with N-terminal His(6) tag) (protein)
chain 1: HHHHHHMSVDEICENTKMGREYALLGNYETSLVYYQGVLQQIQKLLTSVHEPQRKHQWQTIRQELSQEYEHVKNITKTLNGFKSEPAAPEPAPNHGRAAPFSHHQHAAKPAAAEPARDPDVWPPPTPVDHRPSPPYQRAARKDPPRRSEPSKPANRAPGNDRGGRGPSDRRGDARSGGGGRGGARGSDKDKNRGGKSDKDKKAPSGEEGDEKKFDPAGYDKDLVENLERDIVQRNPNVHWADIAGLTEAKRLLEEAVVLPLWMPDYFKGIRRPWKGVLMVGPPGTGKTMLAKAVATECGTTFFNVSSASLTSKYHGESEKLVRLLFEMARFYAPSTIFIDEIDSICSKRGTGSEHEASRRVKSELLIQMDGVSGPSAGEESSKMVMVLAATNFPWDIDEALRRRLEKRIYIPLPEIDGREQLLRINLKEVPLADDIDLKSIAEKMDGYSGADITNVCRDASMMAMRRRIQGLRPEEIRHIPKEELNQPSTPADFLLALQKVSKSVGKEDLVKYMAWMEEFGSV
chain 2: HHHHHHMATKRAWKLQELVAHSSNVNCLALGPMSGRVMVTGGEDKKVNLWAVGKQNCIISLSGHTSPVDSVKFNSSEELVVAGSQSGTMKIYDLEPAKIVRTLTGHRNSIRCMDFHPFGEFVASGSTDTNVKLWDVRRKGCIYTYKGHSDQVNMIKFSPDGKWLVTASEDTTIKLWDLTMGKLFQEFKNHTGGVTGIEFHPNEFLLASGSSDRTVQFWDLETFQLVSSTSPGASAVRSISFHPDGSYLFCSSQDMLHAFGWEPIRCFDTFSVFWGKVADTVIASTQLIGASFNATNVSVYVADLSRMSTTGIAQEPQSQPSKTPSGGAEEVPSKPLTASGRKNFVRERPHTTSSKQRQPDVKSEPERQSPTQDEGVKDDDATDIKDPDSYAKIFSPKTRVDHSPERNAQPFPAPLDVPGAQEPEPFKHPPKPAAAAAVAPVSRAPAPSASDWQPAQANPAPNRVPAATKPVPAQEVAPSRKPDPISTIIPSDRNKPANLDMDAFLPPAHAQQAPRVNAPASRKQSDSERIEGLRKGHDSMCQVLSSRHRNLDVVRAIWTAGDAKTSVESVVNMKDQAILVDILNIMLLKKSLWNLDMCVVVLPRLKELLSSKYENYVHTSCACLKLILKNFTSLFNQNIKCPPSGIDITREERYNKCSKCYSYLIATRGYVEEKQHVSGKLGSSFRELHLLLDQLE
Turning to B1, the “ATPase activity (malachite green), stimulation by microtubules” value was “this activity was stimulated ˜10-fold by microtubules”; the “maximal microtubule-stimulated ATPase rate” value is listed as “maximal microtubule-stimulated rate of 3 ATP/katanin/sec”; the “microtubule concentration at peak ATPase stimulation” value was “peak at ˜2 µM tubulin”; the “microtubule severing, fluorescence microscopy assay” value was “Both p60 and p60/p80 severed microtubules in this assay”.

B2: baculovirus-expressed S. purpuratus katanin p60 subunit with N-terminal His(6) tag (protein)
chain: B1 chain 1
Turning to B2, the “ATPase activity (malachite green), stimulation by microtubules” value is on record as “p60 alone displayed a microtubule-stimulated ATPase activity”; the “microtubule concentration at peak ATPase stimulation” value is on record as “peak at ˜2 µM tubulin”; the “microtubule severing, fluorescence microscopy assay” value is “Both p60 and p60/p80 severed microtubules in this assay”.
